From article PMC8923076 (Cell chemical biology, 2021)

Target: GST-fused GAS41 YEATS domain (residues 1-148) (human, UniProt O95619 1-148)
Assay: fluorescence polarisation

Sequence of GST-fused GAS41 YEATS domain (residues 1-148) (O95619 1-148): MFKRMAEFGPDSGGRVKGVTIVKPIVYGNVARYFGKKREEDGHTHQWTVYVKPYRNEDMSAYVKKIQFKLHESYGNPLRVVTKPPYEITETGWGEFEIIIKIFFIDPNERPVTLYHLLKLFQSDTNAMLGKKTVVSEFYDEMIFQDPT

IC50: 50 µM
Binder: GGKAPRKQLATKAARKSAP (N-terminal acetyl; acetyl-lysine at K18 and K27; C-terminal amide) [H3K18acK27ac peptide]
